From PMC9352680, “A comprehensive thermodynamic model for RNA binding by the Saccharomyces cerevisiae Pumilio protein PUF4”
Substitutions are numbered along the chain they refer to. Names and notes keep the numbering of the source.

T1: PUF4 RNA-binding domain (Saccharomyces cerevisiae, UniProt P25339 537-888)
T1 sequence: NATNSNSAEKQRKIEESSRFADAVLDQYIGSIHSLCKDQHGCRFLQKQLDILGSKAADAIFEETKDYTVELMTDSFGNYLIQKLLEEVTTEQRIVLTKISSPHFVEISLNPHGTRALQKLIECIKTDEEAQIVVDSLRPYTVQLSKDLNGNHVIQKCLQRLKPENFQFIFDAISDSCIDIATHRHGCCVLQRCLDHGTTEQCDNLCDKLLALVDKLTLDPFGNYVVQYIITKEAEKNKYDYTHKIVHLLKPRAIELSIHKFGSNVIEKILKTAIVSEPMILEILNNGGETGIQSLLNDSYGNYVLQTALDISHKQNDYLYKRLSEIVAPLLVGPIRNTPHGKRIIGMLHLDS

B1: Ic_S4_P4E.1_K4.1_C4.1_H4.1_A4.1_[T5A]_[A6T]_[T7G]_F4.1_[T8C]_[A9T]_T4.1 (ssRNA)
RNA: UUUGACAACUGAUCGUUCUUUCUUGUAAUGCUUUCUUUCUCGAUCAGUUGUCUUU
B2: Ic_S4_P4E.1_K4.1_C4.1_H4.1_A4.1_[A6G]_F4.1_[T8C]_[A9T]_T4.1 (ssRNA)
RNA: B1 RNA with A28U, U29G, G30U
B3: Ic_S4_P4E.1_K4.1_C4.1_H4.1_A4.1_[T5A]_[T7A]_F4.1_T4.1 (ssRNA)
RNA: B1 RNA with U29A, G30A, C31U, U32A
B4: Ic_S4_P4E.1_K4.1_C4.1_H4.1_A4.1_[A6G]_F4.1_[T8A]_[A9C]_T4.1 (ssRNA)
RNA: B1 RNA with A28U, U29G, G30U, C31A, U32C
B5: Ic_S4_P4E.1_K4.1_C4.1_H4.1_A4.1_[T5A]_[T7A]_F4.1_[A9T]_T4.1 (ssRNA)
RNA: B1 RNA with U29A, G30A, C31U
B6: Ic_S4_P4E.1_K4.1_C4.1_H4.1_A4.1_[T5A]_[A6T]_[T7A]_F4.1_T4.1 (ssRNA)
RNA: B1 RNA with G30A, C31U, U32A
B7: Ic_S4_P4E.1_K4.1_C4.1_H4.1_A4.1_[T5A]_[A6T]_[T7C]_F4.1_[T8A]_[A9C]_T4.1 (ssRNA)
RNA: B1 RNA with G30C, C31A, U32C
B8: Ic_S4_P4E.1_K4.1_C4.1_H4.1_A4.1_[A6G]_[T7G]_F4.1_[T8C]_[A9C]_T4.1 (ssRNA)
RNA: B1 RNA with A28U, U29G, U32C
B9: Ic_S4_P4E.1_K4.1_C4.1_H4.1_A4.1_[T5A]_[A6T]_[T7A]_F4.1_[T8A]_T4.1 (ssRNA)
RNA: B1 RNA with G30A, C31A, U32A
B10: Ic_S4_P4E.1_K4.1_C4.1_H4.1_A4.1_[T5A]_[T7C]_F4.1_[T8C]_[A9T]_T4.1 (ssRNA)
RNA: B1 RNA with U29A, G30C
B11: Ic_S4_P4E.1_K4.1_C4.1_H4.1_A4.1_[A6G]_[T7C]_F4.1_[T8A]_T4.1 (ssRNA)
RNA: B1 RNA with A28U, U29G, G30C, C31A, U32A
B12: Ic_S4_P4E.1_K4.1_C4.1_H4.1_A4.1_[T5A]_[A6T]_F4.1_[T8G]_[A9C]_T4.1 (ssRNA)
RNA: B1 RNA with G30U, C31G, U32C
B13: Ic_S4_P4E.1_K4.1_C4.1_H4.1_A4.1_[A6G]_F4.1_[T8A]_T4.1 (ssRNA)
RNA: B1 RNA with A28U, U29G, G30U, C31A, U32A
B14: Ic_S4_P4E.1_K4.1_C4.1_H4.1_A4.1_[T5A]_[A6T]_F4.1_[T8A]_[A9G]_T4.1 (ssRNA)
RNA: B1 RNA with G30U, C31A, U32G
B15: Ic_S4_P4E.1_K4.1_C4.1_H4.1_A4.1_[T5A]_F4.1_[T8A]_[A9G]_T4.1 (ssRNA)
RNA: B1 RNA with U29A, G30U, C31A, U32G
B16: Ic_S4_P4E.1_K4.1_C4.1_H4.1_A4.1_[T5A]_[A6T]_[T7C]_F4.1_[T8A]_[A9G]_T4.1 (ssRNA)
RNA: B1 RNA with G30C, C31A, U32G
B17: Ic_S4_P4E.1_K4.1_C4.1_H4.1_A4.1_[T5A]_[A6T]_F4.1_T4.1 (ssRNA)
RNA: B1 RNA with G30U, C31U, U32A
B18: Ic_S4_P4E.1_K4.1_C4.1_H4.1_A4.1_[T5A]_[T7C]_F4.1_[T8C]_[A9C]_T4.1 (ssRNA)
RNA: B1 RNA with U29A, G30C, U32C
B19: Ic_S4_P4E.1_K4.1_C4.1_H4.1_A4.1_[A6G]_[T7C]_F4.1_[T8A]_[A9T]_T4.1 (ssRNA)
RNA: B1 RNA with A28U, U29G, G30C, C31A
B20: Ic_S4_P4E.1_K4.1_C4.1_H4.1_A4.1_[A6G]_[T7C]_F4.1_[T8G]_[A9C]_T4.1 (ssRNA)
RNA: B1 RNA with A28U, U29G, G30C, C31G, U32C
B21: Ic_S4_P4E.1_K4.1_C4.1_H4.1_A4.1_[A6G]_[T7C]_F4.1_[T8C]_T4.1 (ssRNA)
RNA: B1 RNA with A28U, U29G, G30C, U32A
B22: Ic_S4_P4E.1_K4.1_C4.1_H4.1_A4.1_[T5A]_[A6T]_[T7C]_F4.1_[T8C]_T4.1 (ssRNA)
RNA: B1 RNA with G30C, U32A
B23: Ic_S4_P4E.1_K4.1_C4.1_H4.1_A4.1_[T5A]_[A6T]_F4.1_[T8C]_T4.1 (ssRNA)
RNA: B1 RNA with G30U, U32A
B24: Ic_S4_P4E.1_K4.1_C4.1_H4.1_A4.1_[T5A]_[A6T]_[T7A]_F4.1_[T8C]_[A9T]_T4.1 (ssRNA)
RNA: B1 RNA with G30A
B25: Ic_S4_P4E.1_K4.1_C4.1_H4.1_A4.1_[A6G]_F4.1_[T8C]_[A9C]_T4.1 (ssRNA)
RNA: B1 RNA with A28U, U29G, G30U, U32C
B26: Ic_S4_P4E.1_K4.1_C4.1_H4.1_A4.1_[T5A]_[T7C]_F4.1_[A9T]_T4.1 (ssRNA)
RNA: B1 RNA with U29A, G30C, C31U
B27: Ic_S4_P4E.1_K4.1_C4.1_H4.1_A4.1_[T5A]_[T7C]_F4.1_[A9C]_T4.1 (ssRNA)
RNA: B1 RNA with U29A, G30C, C31U, U32C
B28: Ic_S4_P4E.1_K4.1_C4.1_H4.1_A4.1_[T5A]_[A6T]_[T7A]_F4.1_[A9C]_T4.1 (ssRNA)
RNA: B1 RNA with G30A, C31U, U32C
B29: Ic_S4_P4E.1_K4.1_C4.1_H4.1_A4.1_[T5A]_[T7C]_F4.1_[T8C]_[A9G]_T4.1 (ssRNA)
RNA: B1 RNA with U29A, G30C, U32G
B30: Ic_S4_P4E.1_K4.1_C4.1_H4.1_A4.1_[T5A]_[A6T]_[T7C]_F4.1_[A9T]_T4.1 (ssRNA)
RNA: B1 RNA with G30C, C31U
B31: Ic_S4_P4E.1_K4.1_C4.1_H4.1_A4.1_[A6G]_[T7C]_F4.1_[T8C]_[A9C]_T4.1 (ssRNA)
RNA: B1 RNA with A28U, U29G, G30C, U32C
B32: Ic_S4_P4E.1_K4.1_C4.1_H4.1_A4.1_[T5A]_[A6T]_[T7C]_F4.1_[T8G]_[A9G]_T4.1 (ssRNA)
RNA: B1 RNA with G30C, C31G, U32G
B33: Ic_S4_P4E.1_K4.1_C4.1_H4.1_A4.1_[T5A]_[A6T]_[T7A]_F4.1_[A9G]_T4.1 (ssRNA)
RNA: B1 RNA with G30A, C31U, U32G
B34: Ic_S4_P4E.1_K4.1_C4.1_H4.1_A4.1_[A6G]_F4.1_[T8G]_[A9G]_T4.1 (ssRNA)
RNA: B1 RNA with A28U, U29G, G30U, C31G, U32G
B35: Ic_S4_P4E.1_K4.1_C4.1_H4.1_A4.1_[A6G]_[T7G]_F4.1_[T8C]_[A9G]_T4.1 (ssRNA)
RNA: B1 RNA with A28U, U29G, U32G
B36: Ic_S4_P4E.1_K4.1_C4.1_H4.1_A4.1_[A6G]_F4.1_[T8A]_[A9G]_T4.1 (ssRNA)
RNA: B1 RNA with A28U, U29G, G30U, C31A, U32G
B37: Ic_S4_P4E.1_K4.1_C4.1_H4.1_A4.1_[T5A]_[A6T]_[T7A]_F4.1_[T8A]_[A9C]_T4.1 (ssRNA)
RNA: B1 RNA with G30A, C31A, U32C
B38: Ic_S4_P4E.1_K4.1_C4.1_H4.1_A4.1_[T5A]_[T7C]_F4.1_[T8G]_[A9T]_T4.1 (ssRNA)
RNA: B1 RNA with U29A, G30C, C31G
B39: Ic_S4_P4E.1_K4.1_C4.1_H4.1_A4.1_[T5A]_[A6T]_F4.1_[A9C]_T4.1 (ssRNA)
RNA: B1 RNA with G30U, C31U, U32C
B40: Ic_S4_P4E.1_K4.1_C4.1_H4.1_A4.1_[T5A]_[A6T]_[T7C]_F4.1_[A9G]_T4.1 (ssRNA)
RNA: B1 RNA with G30C, C31U, U32G
B41: Ic_S4_P4E.1_K4.1_C4.1_H4.1_A4.1_[A6G]_[T7G]_F4.1_[T8C]_[A9T]_T4.1 (ssRNA)
RNA: B1 RNA with A28U, U29G
B42: Ic_S4_P4E.1_K4.1_C4.1_H4.1_A4.1_[T5A]_[A6T]_[T7A]_F4.1_[T8C]_T4.1 (ssRNA)
RNA: B1 RNA with G30A, U32A
B43: Ic_S4_P4E.1_K4.1_C4.1_H4.1_A4.1_[T5A]_[T7A]_F4.1_[T8C]_[A9T]_T4.1 (ssRNA)
RNA: B1 RNA with U29A, G30A
B44: Ic_S4_P4E.1_K4.1_C4.1_H4.1_A4.1_[T5A]_[A6T]_F4.1_[T8A]_[A9T]_T4.1 (ssRNA)
RNA: B1 RNA with G30U, C31A
B45: Ic_S4_P4E.1_K4.1_C4.1_H4.1_A4.1_[A6G]_[T7C]_F4.1_[T8G]_[A9T]_T4.1 (ssRNA)
RNA: B1 RNA with A28U, U29G, G30C, C31G
B46: Ic_S4_P4E.1_K4.1_C4.1_H4.1_A4.1_[T5A]_[T7A]_F4.1_[T8A]_T4.1 (ssRNA)
RNA: B1 RNA with U29A, G30A, C31A, U32A
B47: Ic_S4_P4E.1_K4.1_C4.1_H4.1_A4.1_[T5A]_[T7C]_F4.1_[T8A]_[A9T]_T4.1 (ssRNA)
RNA: B1 RNA with U29A, G30C, C31A
B48: Ic_S4_P4E.1_K4.1_C4.1_H4.1_A4.1_[T5A]_[T7A]_F4.1_[A9G]_T4.1 (ssRNA)
RNA: B1 RNA with U29A, G30A, C31U, U32G
B49: Ic_S4_P4E.1_K4.1_C4.1_H4.1_A4.1_[A6G]_[T7G]_F4.1_[A9T]_T4.1 (ssRNA)
RNA: B1 RNA with A28U, U29G, C31U

Target: T1, PUF4 RNA-binding domain
Assay: Mg; RNA-MaP; 20 mM Na-HEPES pH 7.4, 30 mM KOAc, 0.75 mM MgCl2, 0.1% Tween-20, 5% glycerol, 0.1 mg/mL BSA, 2 mM DTT; 25 C; 0.0125-409.6 nM protein
Conditions: tags: N-His6-TEV cleaved; C-SNAP kept, Cy3B-labelled; label: tethered on chip by stalled RNA polymerase

Binder | Kd [nM]
UCUCUUUGUAUACGAUCUCUU (ssRNA) [Ic_S1_P4E.1_K4.1_C4.1_H4.1_A4.1_[T7C]_F4.1_[T8G]_T4.1] | 42.1
UCUCUUUGUAUGUAAUCUCUU (ssRNA) [Ib_S1_P4E.1_K4.1_C4.1_H4.1_A4.1_[A6G]_F4.1_[T8A]_T4.1] | 94.6
B1 | 518
B2 | 74.2
B3 | 3.34
B4 | 85
B5 | 65
B6 | 1.95
B7 | 1050
B8 | 1940
B9 | 144
B10 | 175
B11 | 243
B12 | 421
B13 | 70.5
B14 | 467
B15 | 78.7
B16 | 1080
B17 | 2.38
B18 | 455
B19 | 108
B20 | 995
B21 | 28.5
B22 | 464
B23 | 205
B24 | 116
B25 | 36.4

Binder | Kd [nM]
B26 | 51.4
B27 | 76.1
B28 | 46.2
B29 | 942
B30 | 34.8
B31 | 558
B32 | 1920
B33 | 21.6
B34 | 180
B35 | > 2300
B36 | 186
B37 | 314
B38 | 506
B39 | 64.3
B40 | 41.6
B41 | 624
B42 | 555
B43 | 258
B44 | 56.2
B45 | 261
B46 | 202
B47 | 211
B48 | 44.5
B49 | 292
UCUCUUUGUAUAGCAUCUCUU (ssRNA) [Ib_S1_P4E.1_K4.1_C4.1_H4.1_A4.1_[T7G]_F4.1_[T8C]_T4.1] | 26.2
UCUCUUUGUAUCUAAUCUCUU (ssRNA) [Ib_S1_P4E.1_K4.1_C4.1_H4.1_A4.1_[A6C]_F4.1_[T8A]_T4.1] | 49.3
UCUCUUUGUAUUUAAUCUCUU (ssRNA) [Ic_S1_P4E.1_K4.1_C4.1_H4.1_A4.1_[A6T]_F4.1_[T8A]_T4.1] | 66.5
